Laboratory results published in patent US20100129815.

How the values were obtained:
[1] = target: T1, GST-MLC2a fusion protein, Q9QVP4
T1 chain: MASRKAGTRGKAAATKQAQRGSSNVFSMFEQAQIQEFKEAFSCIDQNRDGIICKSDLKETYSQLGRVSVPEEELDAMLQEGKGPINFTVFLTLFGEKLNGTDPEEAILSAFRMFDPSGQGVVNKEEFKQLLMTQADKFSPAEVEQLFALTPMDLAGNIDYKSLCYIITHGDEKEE

[2] = target: T2, GST-MLC2v fusion protein, P08733
T2 chain: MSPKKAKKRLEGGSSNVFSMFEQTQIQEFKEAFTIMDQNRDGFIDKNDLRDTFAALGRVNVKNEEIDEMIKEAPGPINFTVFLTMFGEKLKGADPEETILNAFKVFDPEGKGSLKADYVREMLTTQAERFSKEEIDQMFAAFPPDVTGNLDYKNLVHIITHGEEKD

B1: HA-tagged full length cardiac MLCK (protein)
chain: MYPYDVPDYASGVSEEDPEGLAPQGLPALGGACLATMDKKLNVLTEKVDRLLHFQEDVTEKLQCVCQGMDHLEQDLHRLEASRELSLAGSGSTPPTTAQAAWPEVLELVRAVRQEGAQHGARLEALFKMVVAVDRAITLVGSTFQNSKVADFIMQGTVPGRKGSLADGPEENKEQAEVAGVKPNHVLTTGGVQADASRTLWEESQKEDIPVRTVEGLPLIINTSLKGADLTQAGASLRQGVEVLGPGQVPLPTEAESRLPETASENTGATLELSVAIDRISEVLTSLKMSQGGGQETSSSKPDCWLSEEAMRLSSGPLPQPLGPLTPDSDIHSGDALPRIPINMQEMATPGELLETQSGSPIGSAEAPGLGTVLEDQIPKGARPFPPLPKRSSNNGGMSAEEEIGSGAEPMRGPSLATRDWRDETVGTTDLQQGIDPGAVSPEPGKDHAAQGPGRTEAGRLSSAAEAAIVVLDDSAAPPAPFEHRVVSIKDTLISAGYTVSQHEVLGGGRFGQVHRCTERSTGLALAAKIIKVKNVKDREDVKNEVNIMNQLSHVNLIQLYDAFESKSSFTLIMEYVDGGELFDRITDEKYHLTELDVVLFTRQICEGVHYLHQHYILHLDLKPENILCVSQTGHQIKIIDFGLARRYKPREKLKVNFGTPEFLAPEVVNYEFVSFPTDMWSVGVITYMLLSGLSPFLGETDAETMNFIVNCSWDFDADTFKGLSEEAKDFVSRLLVKEKSCRMSATQCLKHEWLSHLPAKASGSNVRLRSQQLLQKYMAQSKWKKHFHVVTAVNRLRKFPTCP
in vitro kinase assay, incorporation of 32P [1]: promotes incorporation of ^32P to GST-MLC2v and GST-MLC2a fusion proteins
Km (Lineweaver-Burk plot, 32P incorporation into GST-MLC2v; with Ca2+/calmodulin) [2]: 3.9±1.2 (with Ca^2+/calmodulin)
Km (Lineweaver-Burk plot, 32P incorporation into GST-MLC2v; with EGTA) [2]: 2.9±0.8 (with EGTA)
Km (Lineweaver-Burk plot, 32P incorporation into GST-MLC2v; without EGTA and Ca2+/calmodulin) [2]: Km value of 4.3±1.5 µM
in vitro kinase assay, incorporation of 32P [2]: promotes incorporation of ^32P to GST-MLC2v and GST-MLC2a fusion proteins
